Key:
[1] = target: T1, VAMP7-syntaxin1-SNAP25 ternary SNARE complex, labeled with Oregon Green 488 (rat, UniProt Q9JHW5 1-190; P32851 1-265; P60881-2 1-206, C21S | C56V | C145S | S249C | K253C, Oregon Green 488 (maleimide) on cysteines; the labeled endogenous and mutant cysteines are shown in Figure 1A); test: other fluorescence titration; change in Oregon Green 488 fluorescence intensity of the labeled SNARE complex as a function of α-SNAP concentration; fit y = Fmax·x/(KD + x); three independent experiments; conditions: both partners purified
T1 construct: VAMP7, rat, residues 1-190; syntaxin1A, rat, residues 1-265; SNAP25A, rat; Removal of the His6 tag is told only for α-SNAP; also called VAMP7(1–190)-C21S/C56V-syntaxin1A(1–265)-C145S/S249C/K253C-SNAP25A; source: E. coli BL21(DE3), coexpressed, purified (Ni-NTA, Superdex 200); copies: + +
T1 sequence (Q9JHW5 1-190 C21S/C56V, chain 1 of 3): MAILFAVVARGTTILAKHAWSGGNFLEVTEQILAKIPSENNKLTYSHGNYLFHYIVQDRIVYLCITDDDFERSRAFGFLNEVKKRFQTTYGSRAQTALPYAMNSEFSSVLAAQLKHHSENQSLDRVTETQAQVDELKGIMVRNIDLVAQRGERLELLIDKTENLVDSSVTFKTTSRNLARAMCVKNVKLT
T1 sequence (P32851 1-265 C145S/S249C/K253C, chain 2 of 3): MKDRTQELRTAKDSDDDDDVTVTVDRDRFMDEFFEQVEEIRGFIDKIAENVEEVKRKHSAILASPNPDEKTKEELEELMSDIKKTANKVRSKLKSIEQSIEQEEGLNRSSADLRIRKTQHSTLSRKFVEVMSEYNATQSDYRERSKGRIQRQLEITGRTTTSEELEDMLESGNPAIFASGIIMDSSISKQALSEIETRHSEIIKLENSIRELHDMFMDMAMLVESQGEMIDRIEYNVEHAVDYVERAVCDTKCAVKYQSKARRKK
T1 sequence (P60881 other isoform, or with tags, fused parts or gaps with the stated changes, chain 3 of 3): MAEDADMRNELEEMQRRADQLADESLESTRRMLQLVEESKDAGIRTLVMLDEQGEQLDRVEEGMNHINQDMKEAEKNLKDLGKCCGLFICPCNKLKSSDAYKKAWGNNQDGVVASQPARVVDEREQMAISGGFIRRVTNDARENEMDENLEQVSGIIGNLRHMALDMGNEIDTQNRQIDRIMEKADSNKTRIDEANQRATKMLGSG

[2] = target: T2, ^ΔNVAMP7-^ΔNsyntaxin1-SNAP25 core complex (rat, UniProt Q9JHW5 119-190; P32851 191-265; P60881-2 1-206, S249C | K253C); test: SEC-MALS; 30 μM SNARE complex and 30 μM α-SNAP (1:1 mixture); WTC-030S5 column; 20 mM Tris-HCl (pH 8.0), 50 mM NaCl, 0.1 mM TCEP; conditions: both partners purified
T2 construct: VAMP7, rat, residues 119-190; syntaxin1A, rat, residues 191-265; the construct's printed name also holds C145S, which lies outside 191-265; SNAP25A, rat; also called ^ΔNSNARE complex; core of the VAMP7-syntaxin1-SNAP25 SNARE complex (without the N-terminal domains); source: E. coli, coexpressed, purified; copies: + +
T2 sequence (Q9JHW5 119-190, stated change not applied, chain 1 of 3): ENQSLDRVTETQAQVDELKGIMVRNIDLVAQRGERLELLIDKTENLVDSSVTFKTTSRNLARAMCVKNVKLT
T2 sequence (P32851 191-265 S249C/K253C, chain 2 of 3): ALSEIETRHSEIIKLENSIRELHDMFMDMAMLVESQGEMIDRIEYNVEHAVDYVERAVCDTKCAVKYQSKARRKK
T2 sequence (P60881 other isoform, or with tags, fused parts or gaps S249C | K253C | S249C | K253C | mutant, chain 3 of 3): as the sequence (P60881 other isoform, or with tags, fused parts or gaps with the stated changes, chain 3 of 3) above

B1: α-soluble NSF attachment protein (α-SNAP) (natural protein, rat, UniProt P54921 1-295, looked up)
chain: MDTSGKQAEAMALLAEAERKVKNSQSFFSGLFGGSSKIEEACEIYARAANMFKMAKNWSAAGNAFCQAAQLHLQLQSKHDAATCFVDAGNAFKKADPQEAINCLMRAIEIYTDMGRFTIAAKHHISIAEIYETELVDVEKAIAHYEQSADYYKGEESNSSANKCLLKVAGYAAQLEQYQKAIDIYEQVGTSAMDSPLLKYSAKDYFFKAALCHFCIDMLNAKLAVQKYEELFPAFSDSRECKLMKKLLEAHEEQNVDSYTESVKEYDSISRLDQWLTTMLLRIKKTIQGDEEDLR
notes: α-SNAP, rat; His6 tag removed with tobacco etch virus protease; source: E. coli BL21(DE3), purified (Ni-NTA, Superdex 200)
binding result [1]: binds | stoichiometry N [2]: 1 α-SNAP per SNARE complex
